Results: US20240033343A1
Where two headings read alike, the source gives them in different places.

How the values were obtained:
[1] = target: SARS-CoV-2 Sclamp (SARS-CoV-2) (UniProt P0DTC2)
[2] = target: SARS-CoV-2 Sclamp (SARS-CoV-2) (UniProt P0DTC2); test: characterization of the lead candidate; ELISA per paragraph 282
[3] = target: SARS-CoV-2 Sclamp (SARS-CoV-2) (UniProt P0DTC2); test: ELISA on purified antigen, antibody titrated
[4] = target: SARS-CoV-2-foldon (SARS-CoV-2) (UniProt P0DTC2); test: ELISA on purified antigen, antibody titrated

Work on CR3022 (antibody) yielded a Kd [1] of 0.13 nM and a Kd [2] of 0.3 nM.

DH1047 (antibody) gave an EC50 (read off the curve) [3] of 0.3 nM and an EC50 (read off the curve) [4] of 0.4 nM.

Work on huCR3022 (antibody) yielded an EC50 (read off the curve) [3] of 0.6 nM and an EC50 (read off the curve) [4] of 0.6 nM.

For CB6 (antibody), the Kd [1] was 0.15 nM.

For S309 (antibody), the Kd [1] was 0.08 nM.
